Data: patent US20230374148A1, “BINDING MOLECULES THAT MULTIMERISE CD45” (UCB BIOPHARMA SRL, priority 2020, published 2023)

Experiments:
Assay type in all cases: cell-based
CCRF-SB = test: Apoptosis of cell lines: CCRF-SB; details: 21 hrs
Text: (§1) The following cell lines representing various leukaemia's and lymphoma's, as classified by ATCC (www.atcc.org/), were used: Jurkat—acute T-cell leukaemia; CCRF-SB—B-cell acute lymphoblastic leukaemia; MC116—B-cell undifferentiated lymphoma; Raji, Ramos—Burkitt lymphoma (rare form of B-cell non-Hodgkin lymphoma); SU-DHL-4, SU-DHL-5, SU-DHL-8, NU-DUL-1, OCI-Ly3—Diffuse large B-cell lymphoma; THP-1—acute monocytic leukaemia; and Dakiki—B cell nasopharyngeal carcinoma.
(§2) Prior to an assay being performed, 1 vial of each of the above cell lines was thawed in a 37° C. water bath and then added to 20 ml complete media (RPMI 1640+2 mM GlutaMAX+1% Pen/Strep, all previous supplied by Invitrogen, +10% Fetal Bovine Serum (FBS), Sigma Aldrich). Cells were spun (500 g, 5 min, at RT) and re-suspended in 20 ml complete media to wash and spun again. Cells were resuspended in 10 ml complete media and then counted using a ChemoMetec NucleoCounter NC-3000. 6×10^6 cells of each cell line were spun (500 g, 5 min, at RT) and re-suspended in 4.8 ml complete media. 1×10^5 cells in 80 μl were then added to each well of a Corning Costar 96-well, cell culture treated, U-shaped-bottom microplate (cat no. 07-200-95). The plate was rested in a 37° C., 5% CO2 incubator for 2 hrs
(§3) Stocks of 4133-6294 BYbe and NegCtrl BYbe at 2500 nM in complete media were prepared. In a Greiner 96-well non-binding microplate, both reagents were serially diluted in complete media 1 in 5, seven times to produce to form an 8-point dose curve. […] (final well concentrations 500-0.0064 nM) was added to the cells. Each concentration was produced in triplicate. Camptothecin (cat no. C9911-100MG, Sigma Aldrich) and Staurosporine (cat no. 56942-200UL, Sigma Aldrich) were added as positive controls of apoptosis. Both were diluted in complete media and added to the well to produce a final concentration of 5 μM. Additional positive controls included anti-thymocyte globulin (ATG, indicated by FDA for use in conditioning regimens), Rituximab (anti-CD20, indicated by FDA for Non-Hodgkin Lymphoma and Chronic Lymphocytic Leukaemia) and Campath (anti-CD52, indicated by FDA for B-cell Chronic Lymphocytic Leukaemia). Anti-thymocyte globulin, Rituximab and Campath were added to the wells to produce final concentrations of 200 μg/ml, 500 nM and 200 μg/ml, respectively. […]
(§4) Following the incubation, the plates were spun at 500 g, 5 min, RT, the buffer was aspirated with a BioTek ELx405 microplate washer, and the cells were re-suspended in FACS buffer (PBS+1% bovine serum albumin (BSA)+0.1% NaN3+2 mM EDTA, Sigma Aldrich) to wash and then re-spun and buffer was aspirated to leave the cells in 20 μl residual media. […] Cells were analysed using the Bio-Rad ZE5 Cell Analyzer. […]

SU-DHL-4 = test: Apoptosis of cell lines: SU-DHL-4; details: SU-DHL-4, 21 hrs
Text: as §1, §2, §3, §4

Human PBMC = test: Apoptosis of PBMCs: reduction of PBMC cell subsets; details: 24 hrs; for Bottom level of % subset cell reduction / Top level of % subset cell reduction: donor UCB Cone-802
Description: Human PBMC derived from blood leukocyte platelet-apheresis cones (NHSBT Oxford) were banked as frozen aliquots. Prior to an assay being performed, 2 vials of frozen cells, each containing 5×10^7 cells in 1 ml, were thawed in a 37° C. water bath and then added to 50 ml complete media (RPMI 1640+2 mM GlutaMAX+1% Pen/Strep, all previous supplied by Invitrogen, +10% Fetal Bovine Serum (FBS), Sigma Aldrich). Cells were spun (500 g, 5 min, at RT) and re-suspended in 30 ml complete media to wash and spun again. Cells were resuspended in 10 ml complete media and then counted using a ChemoMetec NucleoCounter NC-3000. 10^5 cells per well in 100 μl were then added to each well of a Corning Costar 96-well, cell culture treated, U-shaped-bottom microplate (cat no. 07-200-95). The plate was rested in a 37° C., 5% CO2 incubator for 2 hrs. PBMCs from two donors, UCB-Cones 801 and 802 were used in this assay.
Similarly, a 1500 nM stock of 4133-6294 BYbe in complete media was prepared. The microplate was incubated for 1 hr at 37° C., 5% CO2. Following the incubation, Fab-KD-Fab and BYbe reagents were then serially diluted in complete media 1 in 5, nine times to produce to form a 10-point dose curve.
Following the incubation, the plate was spun at 500 g, 5 min, RT, the buffer was aspirated with a BioTek ELx405 microplate washer, and the cells were re-suspended in FACS buffer (PBS+1% bovine serum albumin (BSA)+0.1% NaN3+2 mM EDTA, Sigma Aldrich) to wash and then re-spun and buffer was aspirated to leave the cells in 20 μl residual media. 20 μl of cell-specific marker antibody cocktail solution was added to the wells and incubated for 1 hr at 4° C. The antibody cocktail is detailed in Table 4 below.
Cells were analysed live using the Intellicyt iQue Screener PLUS. Live cell counts were extracted as metrics and graphical representations generated using Graphpad Prism version 8.1 (Graphpad). Asymmetric (five parameter) curve fitting was applied to derive maximal % cell reduction and EC50 values.

Molecule | Campath mean (%) cell reduction (CCRF-SB; 200 μg/ml) | Campath mean (%) cell reduction (SU-DHL-4; 200 μg/ml) | almost maximal reductions in B cells (Human PBMC; B cells in PBMC, stated for both reagents) | Bottom level of % subset cell reduction (Human PBMC; B cells) | Top level of % subset cell reduction (Human PBMC; B cells) | Bottom level of % subset cell reduction (Human PBMC; CD4+ Memory) | Top level of % subset cell reduction (Human PBMC; CD4+ Memory) | Bottom level of % subset cell reduction (Human PBMC; CD4+ Naive) | Top level of % subset cell reduction (Human PBMC; CD4+ Naive) | Bottom level of % subset cell reduction (Human PBMC; CD4+) | Top level of % subset cell reduction (Human PBMC; CD4+) | Bottom level of % subset cell reduction (Human PBMC; CD8+) | Top level of % subset cell reduction (Human PBMC; CD8+) | Bottom (%) level of % cell reduction (CCRF-SB) | Top (%) level of % cell reduction (CCRF-SB) | Bottom (%) level of % cell reduction (SU-DHL-4) | Top (%) level of % cell reduction (SU-DHL-4)
Campath: anti-CD52, clinical grade, indicated by FDA for B-cell Chronic Lymphocytic Leukaemia; positive control [reference compound] | 24.86% | 92.46% | – | – | – | – | – | – | – | – | – | – | – | – | – | – | –
4133-6294 BYbe: anti-CD45 BYbe (Fab-scFv): 4133 Fab HC-G4S linker-6294 scFv heavy chain paired with 4133 light chain (antibody) heavy: QEQLVESGGGLVQPEGSLTLTCTASGFSFSGNYYMCWVRQAPGKGLEWIGCLYTGSSGSTYYASWAKGRFTISKTSSTTVTLQMTSLTAADTATYFCARDLGYEIDGYGGLWGQGTLVTVSSGQPKAPSVFPLAPCCGDTPSSTVTLGCLVKGYLPEPVTVTWNSGTLTNGVRTFPSVRQSSGLYSLSSVVSVTSSSQPVTCNVAHPATNTKVDKTVAPSTCSKPGGGGSGGGGSEVQLVESGAELARPGASVKMSCKASGYTFTSYTMHWVKQRPGQCLEWIGYINPSSGYTEYNQKFKDKTTLTADKSSSTAYLQLSSLTSEDSAVYYCARVGDGFYPSWLAYWGQGTLVTVSSGGGGSGGGGSGGGGSGGGGSDIQMTQSPKFLLVSAGDRVTITCKASQSVRNDVAWYQQKPGQSPKLLIFYASKRYTGVPDRFTGSGYGTDFTFTISTVQAEDLAVYFCQQDYSSPTTFGCGTKLEIK light: AQVLTQTPSPVSAVVGGTVSISCQASQSVYNNNNLSWYQQKPGQPPKLLIYDASKLASGVPSRFKGSGSGTQFTLTISGVQCDDAATYYCLGGYYSSGWYFAFGGGTKVVVKRTPVAPTVLIFPPAADQVATGTVTIVCVANKYFPDVTVTWEVDGTTQTTGIENSKTPQNSADCTYNLSSTLTLTSTQYNSHKEYTCKVTQGTTSVVQSFNRGDC | – | – | 87% | 18.74% | 87.09% | 24% | 99.76% | 18.53% | 99.04% | 20.22% | 99.2% | 0.543% | 98.36% | 13.95% | 83.40% | 16.98% | 91.88%
